Measured values as given in patent US20220089698A1 (published 2022).

Key:
HIV gp120 Bal = HIV gp120 Bal (HIV); test: single-point ELISA; also: test concentration or dose not given here
HIV gp120 CAAN = HIV gp120 CAAN (HIV); test: single-point ELISA; also: test concentration or dose not given here

| Binder | ELISA (A450) (HIV gp120 Bal) | ELISA (A450) (HIV gp120 CAAN) |
| --- | --- | --- |
| 1.34.32-1 (antibody, human IgG1, kappa) heavy: QVQLVQSGAEVKKPGASVRVSCKASGYNIRDYFIHWWRQAPGQGLQWVGWINPKTGQPNNPRQFQGRVTLTRHASWDFDTFSFYMDLKALRSDDTAVYFCARQRTDYWDFDVWGSGTQVTVSSASTKGPSVFPLAPSSKSTSGGTAALGCLVKDYFPEPVTVSWNSGALTSGVHTFPAVLQSSGLYSLSSVVTVPSSSLGTQTYICNVNHKPSNTKVDKKVEPKSCDKTHTCPPCPAPELLAGPDVFLFPPKPKDTLMISRTPEVTCVVVDVSHEDPEVKFNWYVDGVEVHNAKTKPREEQYNSTYRVVSVLTVLHQDWLNGKEYKCKVSNKALPLPEEKTISKAKGQPREPQVYTLPPSREEMTKNQVSLTCLVKGFYPSDIAVEWESNGQPENNYKTTPPVLDSDGSFFLYSKLTVDKSRWQQGNVFSCSVLHEALHSHYTQKSLSLSPGK light: DIQMTQSPSSLSASVGDTVTITCQANGYLNWYQQRRGKAPKLLIYDGSKLERGVPSRFSGRRWGQEYTLTISSLQPEDIATYFCQVYEFVTPGTRLDLKRTVAAPSVFIFPPSDEQLKSGTASVVCLLNNFYPREAKVQWKVDNALQSGNSQESVTEQDSKDSTYSLSSTLTLSKADYEKHKVYACEVTHQGLSSPVTKSFNRGEC | 0.93 A450 | 0.97 A450 |
| 1.36.32-1 (antibody, human IgG1, kappa) heavy: QVQLVQSGAEVKKPGASVRVSCKASGYNIRDYFMHWWRQAPGQGLQWVGWINPKTGQPNNPRQFQGRVTMTRHASWDFDTFSAYMDLSRLRSDDTATYFCARQRTDYWDFDVWGQGTMVTVSSASTKGPSVFPLAPSSKSTSGGTAALGCLVKDYFPEPVTVSWNSGALTSGVHTFPAVLQSSGLYSLSSVVTVPSSSLGTQTYICNVNHKPSNTKVDKKVEPKSCDKTHTCPPCPAPELLAGPDVFLFPPKPKDTLMISRTPEVTCVVVDVSHEDPEVKFNWYVDGVEVHNAKTKPREEQYNSTYRVVSVLTVLHQDWLNGKEYKCKVSNKALPLPEEKTISKAKGQPREPQVYTLPPSREEMTKNQVSLTCLVKGFYPSDIAVEWESNGQPENNYKTTPPVLDSDGSFFLYSKLTVDKSRWQQGNVFSCSVLHEALHSHYTQKSLSLSPGK light: DIQMTQSPSSLSASVGDTVTITCQANGYLNWYQQRRGKAPKLLIYDGSKLERGVPSRFSGRRWGQEYTLTISSLQPEDIATYFCQVYEFVTPGTRLDLKRTVAAPSVFIFPPSDEQLKSGTASVVCLLNNFYPREAKVQWKVDNALQSGNSQESVTEQDSKDSTYSLSSTLTLSKADYEKHKVYACEVTHQGLSSPVTKSFNRGEC | 0.96 A450 | 0.5 A450 |
| 1.32.33-1 (antibody, human IgG1, kappa) heavy: QVQLVQSGAEVTKPGASVRVSCEASGYNIRDYFIHWWRQAPGQGLQWVGWINPKTGQPNNPRQFQGRVSLTRHASWDFDTFSFYMDLKALRSDDTAVYFCARQRTDYWDFDVWGSGTQVTVSSASTKGPSVFPLAPSSKSTSGGTAALGCLVKDYFPEPVTVSWNSGALTSGVHTFPAVLQSSGLYSLSSVVTVPSSSLGTQTYICNVNHKPSNTKVDKKVEPKSCDKTHTCPPCPAPELLAGPDVFLFPPKPKDTLMISRTPEVTCVVVDVSHEDPEVKFNWYVDGVEVHNAKTKPREEQYNSTYRVVSVLTVLHQDWLNGKEYKCKVSNKALPLPEEKTISKAKGQPREPQVYTLPPSREEMTKNQVSLTCLVKGFYPSDIAVEWESNGQPENNYKTTPPVLDSDGSFFLYSKLTVDKSRWQQGNVFSCSVLHEALHSHYTQKSLSLSPGK light: DIQMTQSPSSLSASVGDTVTITCQANGYLNWYQQRRGKAPKLLIYDGSNLERGVPSRFSGRRWGQEYTLTISSLQPEDIATYFCQVYEFVVPGTNLDIKRTVAAPSVFIFPPSDEQLKSGTASVVCLLNNFYPREAKVQWKVDNALQSGNSQESVTEQDSKDSTYSLSSTLTLSKADYEKHKVYACEVTHQGLSSPVTKSFNRGEC | 0.93 A450 | 0.68 A450 |
| 1.35.32-1 (antibody, human IgG1, kappa) heavy: QVQLVQSGAEVKKPGASVRVSCKASGYNIRDYFMHWWRQAPGQGLQWVGWINPKTGQPNNPRQFQGRVTMTRHASWDFDTFSFYMDLSRLRSDDTATYFCARQRTDYWDFDVWGQGTMVTVSSASTKGPSVFPLAPSSKSTSGGTAALGCLVKDYFPEPVTVSWNSGALTSGVHTFPAVLQSSGLYSLSSVVTVPSSSLGTQTYICNVNHKPSNTKVDKKVEPKSCDKTHTCPPCPAPELLAGPDVFLFPPKPKDTLMISRTPEVTCVVVDVSHEDPEVKFNWYVDGVEVHNAKTKPREEQYNSTYRVVSVLTVLHQDWLNGKEYKCKVSNKALPLPEEKTISKAKGQPREPQVYTLPPSREEMTKNQVSLTCLVKGFYPSDIAVEWESNGQPENNYKTTPPVLDSDGSFFLYSKLTVDKSRWQQGNVFSCSVLHEALHSHYTQKSLSLSPGK light: DIQMTQSPSSLSASVGDTVTITCQANGYLNWYQQRRGKAPKLLIYDGSKLERGVPSRFSGRRWGQEYTLTISSLQPEDIATYFCQVYEFVTPGTRLDLKRTVAAPSVFIFPPSDEQLKSGTASVVCLLNNFYPREAKVQWKVDNALQSGNSQESVTEQDSKDSTYSLSSTLTLSKADYEKHKVYACEVTHQGLSSPVTKSFNRGEC | 0.96 A450 | 1.01 A450 |
| 1.33.33-1 (antibody, human IgG1, kappa) heavy: QVQLVQSGAEVKKPGASVRVSCKASGYNIRDYFIHWWRQAPGQGLQWVGWINPKTGQPNNPRQFQGRVTLTRHASWDFDTFSFYMDLKALRSDDTATYFCARQRSDYWDFDVWGSGTQVTVSSASTKGPSVFPLAPSSKSTSGGTAALGCLVKDYFPEPVTVSWNSGALTSGVHTFPAVLQSSGLYSLSSVVTVPSSSLGTQTYICNVNHKPSNTKVDKKVEPKSCDKTHTCPPCPAPELLAGPDVFLFPPKPKDTLMISRTPEVTCVVVDVSHEDPEVKFNWYVDGVEVHNAKTKPREEQYNSTYRVVSVLTVLHQDWLNGKEYKCKVSNKALPLPEEKTISKAKGQPREPQVYTLPPSREEMTKNQVSLTCLVKGFYPSDIAVEWESNGQPENNYKTTPPVLDSDGSFFLYSKLTVDKSRWQQGNVFSCSVLHEALHSHYTQKSLSLSPGK light: DIQMTQSPSSLSASVGDTVTITCQANGYLNWYQQRRGKAPKLLIYDGSNLERGVPSRFSGRRWGQEYTLTISSLQPEDIATYFCQVYEFVVPGTNLDIKRTVAAPSVFIFPPSDEQLKSGTASVVCLLNNFYPREAKVQWKVDNALQSGNSQESVTEQDSKDSTYSLSSTLTLSKADYEKHKVYACEVTHQGLSSPVTKSFNRGEC | 1.09 A450 | 1.06 A450 |
| 1.1.33-1 (antibody, human IgG1, kappa) heavy: QVQLLQSGAAVTKPGASVRVSCEASGYNIRDYFIHWWRQAPGQGLQWVGWINPKTGQPNNPRQFQGRVSLTRHASWDFDTFSFYMDLKALRSDDTAVYFCARQRSDYWDFDVWGSGTQVTVSSASTKGPSVFPLAPSSKSTSGGTAALGCLVKDYFPEPVTVSWNSGALTSGVHTFPAVLQSSGLYSLSSVVTVPSSSLGTQTYICNVNHKPSNTKVDKKVEPKSCDKTHTCPPCPAPELLAGPDVFLFPPKPKDTLMISRTPEVTCVVVDVSHEDPEVKFNWYVDGVEVHNAKTKPREEQYNSTYRVVSVLTVLHQDWLNGKEYKCKVSNKALPLPEEKTISKAKGQPREPQVYTLPPSREEMTKNQVSLTCLVKGFYPSDIAVEWESNGQPENNYKTTPPVLDSDGSFFLYSKLTVDKSRWQQGNVFSCSVLHEALHSHYTQKSLSLSPGK light: DIQMTQSPSSLSASVGDTVTITCQANGYLNWYQQRRGKAPKLLIYDGSNLERGVPSRFSGRRWGQEYTLTISSLQPEDIATYFCQVYEFVVPGTNLDIKRTVAAPSVFIFPPSDEQLKSGTASVVCLLNNFYPREAKVQWKVDNALQSGNSQESVTEQDSKDSTYSLSSTLTLSKADYEKHKVYACEVTHQGLSSPVTKSFNRGEC | 0.87 A450 | 0.94 A450 |
| 1.34.33-1 (antibody, human IgG1, kappa) heavy: QVQLVQSGAEVKKPGASVRVSCKASGYNIRDYFIHWWRQAPGQGLQWVGWINPKTGQPNNPRQFQGRVTLTRHASWDFDTFSFYMDLKALRSDDTAVYFCARQRTDYWDFDVWGSGTQVTVSSASTKGPSVFPLAPSSKSTSGGTAALGCLVKDYFPEPVTVSWNSGALTSGVHTFPAVLQSSGLYSLSSVVTVPSSSLGTQTYICNVNHKPSNTKVDKKVEPKSCDKTHTCPPCPAPELLAGPDVFLFPPKPKDTLMISRTPEVTCVVVDVSHEDPEVKFNWYVDGVEVHNAKTKPREEQYNSTYRVVSVLTVLHQDWLNGKEYKCKVSNKALPLPEEKTISKAKGQPREPQVYTLPPSREEMTKNQVSLTCLVKGFYPSDIAVEWESNGQPENNYKTTPPVLDSDGSFFLYSKLTVDKSRWQQGNVFSCSVLHEALHSHYTQKSLSLSPGK light: DIQMTQSPSSLSASVGDTVTITCQANGYLNWYQQRRGKAPKLLIYDGSNLERGVPSRFSGRRWGQEYTLTISSLQPEDIATYFCQVYEFVVPGTNLDIKRTVAAPSVFIFPPSDEQLKSGTASVVCLLNNFYPREAKVQWKVDNALQSGNSQESVTEQDSKDSTYSLSSTLTLSKADYEKHKVYACEVTHQGLSSPVTKSFNRGEC | 1.1 A450 | 1.04 A450 |
| 1.35.33-1 (antibody, human IgG1, kappa) heavy: QVQLVQSGAEVKKPGASVRVSCKASGYNIRDYFMHWWRQAPGQGLQWVGWINPKTGQPNNPRQFQGRVTMTRHASWDFDTFSFYMDLSRLRSDDTATYFCARQRTDYWDFDVWGQGTMVTVSSASTKGPSVFPLAPSSKSTSGGTAALGCLVKDYFPEPVTVSWNSGALTSGVHTFPAVLQSSGLYSLSSVVTVPSSSLGTQTYICNVNHKPSNTKVDKKVEPKSCDKTHTCPPCPAPELLAGPDVFLFPPKPKDTLMISRTPEVTCVVVDVSHEDPEVKFNWYVDGVEVHNAKTKPREEQYNSTYRVVSVLTVLHQDWLNGKEYKCKVSNKALPLPEEKTISKAKGQPREPQVYTLPPSREEMTKNQVSLTCLVKGFYPSDIAVEWESNGQPENNYKTTPPVLDSDGSFFLYSKLTVDKSRWQQGNVFSCSVLHEALHSHYTQKSLSLSPGK light: DIQMTQSPSSLSASVGDTVTITCQANGYLNWYQQRRGKAPKLLIYDGSNLERGVPSRFSGRRWGQEYTLTISSLQPEDIATYFCQVYEFVVPGTNLDIKRTVAAPSVFIFPPSDEQLKSGTASVVCLLNNFYPREAKVQWKVDNALQSGNSQESVTEQDSKDSTYSLSSTLTLSKADYEKHKVYACEVTHQGLSSPVTKSFNRGEC | 0.9 A450 | 0.91 A450 |
| 1.31.33-1 (antibody, human IgG1, kappa) heavy: QVQLVQSGAEVTKPGASVRVSCEASGYNIRDYFIHWWRQAPGQGLQWVGWINPKTGQPNNPRQFQGRVSLTRHASWDFDTFSFYMDLKALRSDDTATYFCARQRSDYWDFDVWGSGTQVTVSSASTKGPSVFPLAPSSKSTSGGTAALGCLVKDYFPEPVTVSWNSGALTSGVHTFPAVLQSSGLYSLSSVVTVPSSSLGTQTYICNVNHKPSNTKVDKKVEPKSCDKTHTCPPCPAPELLAGPDVFLFPPKPKDTLMISRTPEVTCVVVDVSHEDPEVKFNWYVDGVEVHNAKTKPREEQYNSTYRVVSVLTVLHQDWLNGKEYKCKVSNKALPLPEEKTISKAKGQPREPQVYTLPPSREEMTKNQVSLTCLVKGFYPSDIAVEWESNGQPENNYKTTPPVLDSDGSFFLYSKLTVDKSRWQQGNVFSCSVLHEALHSHYTQKSLSLSPGK light: DIQMTQSPSSLSASVGDTVTITCQANGYLNWYQQRRGKAPKLLIYDGSNLERGVPSRFSGRRWGQEYTLTISSLQPEDIATYFCQVYEFVVPGTNLDIKRTVAAPSVFIFPPSDEQLKSGTASVVCLLNNFYPREAKVQWKVDNALQSGNSQESVTEQDSKDSTYSLSSTLTLSKADYEKHKVYACEVTHQGLSSPVTKSFNRGEC | 0.89 A450 | 0.86 A450 |
